Experimental data taken from US20030157090A1 (published 2003).
Numbering of substitutions follows the chain as printed.

B1: scFv(P5) (scFv)
scFv: QVQLQESGGDLVQPGGSLKLSCAVSGFSLTGYGVNWVRQTPDKRLEWVAMIWGDGNTDYNSSVKGRFTISKDNAKSTVYLQMSSLKSEDTAMYYCARERDYRLDYWGQGTTVTVSSGGGGSGGGGSGGGGSDIELTQSPASLAVSLGQRATISCRASGNIHNYLAWYQQKPGQPPKLLIYYTTTLADGIPARFSGSGSGTDYTLTINPVEADDVATYYCQHFWSTPRTFGGGTKLEIKR
notes: Last product of mutagenesis, with the highest number of substitutions; also called P5 mutant; LYS/P5
B2: scFv(CMV-4G) (scFv)
scFv: QVQLQESGGDLVQPGGSLKLSCAASGFTFSSYGMSWVRQTPDKRLELVATINSNGGSTFYPDSVKGRFTISRDNAKNTLYLQMSSLKSEDTAMYYCARNNWSFDYWGQGTTVTVSSGGGGSGGGGSGGGGSDIELTQSPASLAVSLGQRATISCRASESVHNYMHWYQQKPGQPPKLLIYRALNLESGIPARFSGSGSRTDFTLTINPVEADDVATYYCQQGQRKPWTFGGGTKLEIKR
B3: scFv(LYS-11E) (scFv)
scFv: B2 scFv with N99T, N100R, W101P, S102Y, G222V, Q223T, R224Y
notes: also called scFv(HEL-11E)
B4: scFv(CMV-4B) (scFv)
scFv: B2 scFv with W101Y, Q223R, K225A

What was measured:
lysozyme (Sigma) [1] = target: T1, lysozyme (Sigma) (chicken, UniProt P00698 19-147); assay: ELISA on coated lysozyme, E. coli periplasmic extracts normalized for total protein
T1 construct: also called lysozime; Lisozyme
T1 sequence (P00698 19-147): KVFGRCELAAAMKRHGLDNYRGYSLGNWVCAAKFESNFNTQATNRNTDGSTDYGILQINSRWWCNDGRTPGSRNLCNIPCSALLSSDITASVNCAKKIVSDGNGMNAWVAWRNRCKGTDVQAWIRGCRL

[2] = target: cucumber mosaic virus (CMV), purified (cucumber mosaic virus); assay: SPR (BIAcoreX), purified CMV amine-coupled to a CM5 chip, scFv in flow; kD=koff/kon
lysozyme (Sigma) [3] = target: T1, lysozyme (Sigma); assay: column 'Specificity' of Table I; clone selected from the monoscaffold phage library and screened by ELISA

Binder	Kd [2]	further results
B1	–	binding result (lysozyme (Sigma) [1]): binds
B2	60 nM	–
B3	–	binding result (lysozyme (Sigma) [3]): binds
B4	10 nM	–
